Where two headings read alike, the source gives them in different places.
What was measured:
[1] = target: T1, Recombinant Human Fc gamma RIIA/CD32a (H167) Protein (R&D Systems), His-tagged (human, UniProt P12318 34-218); assay: SPR (Biacore T200); receptor immobilized directly on CM5 chip, antibody as analyte at 4.7 µM
T1 construct: also called human FcγRIIa (H167); hFcγRIIa (H167)
T1 sequence: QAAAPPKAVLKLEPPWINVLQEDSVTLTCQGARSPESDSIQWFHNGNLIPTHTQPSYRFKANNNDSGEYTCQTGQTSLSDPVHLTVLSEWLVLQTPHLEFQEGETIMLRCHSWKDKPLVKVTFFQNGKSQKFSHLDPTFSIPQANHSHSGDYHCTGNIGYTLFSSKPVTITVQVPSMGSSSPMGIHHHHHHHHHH

[2] = target: T2, Recombinant Human Fc gamma RIIB/C (CD32b/c) Protein (R&D Systems), His-tagged (human, UniProt P31994 46-217); assay: as above
T2 construct: also called human FcγRIIb/c; hFcγRIIb/c
T2 sequence: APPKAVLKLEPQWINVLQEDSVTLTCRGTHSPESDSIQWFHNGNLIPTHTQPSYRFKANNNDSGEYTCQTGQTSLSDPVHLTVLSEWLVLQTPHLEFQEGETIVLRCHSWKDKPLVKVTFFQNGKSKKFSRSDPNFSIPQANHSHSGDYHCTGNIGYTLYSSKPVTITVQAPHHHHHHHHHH

[3] = target: T3, Recombinant Human Fc gamma RIIIA/CD16a protein (R&D Systems), His-tagged (human, UniProt P08637 17-208); assay: as above
T3 construct: also called human FcγRIIIa; hFcγRIIIa

[4] = target: T4, Recombinant Human Fc gamma RIIIA/CD16a (V176F) Protein (R&D Systems), His-tagged (human, UniProt P08637 17-208); assay: as above
T4 construct: no further substitution applied; also called human FcγRIIIa (V176F); hFcγRIIIa (V176F)

[5] = target: T5, Recombinant Human Fc gamma RIIIB/CD16b Protein (R&D Systems), His-tagged (human, UniProt O75015 20-208); assay: as above
T5 construct: also called human FcγRIIIb; hFcγRIIIb
T5 chain: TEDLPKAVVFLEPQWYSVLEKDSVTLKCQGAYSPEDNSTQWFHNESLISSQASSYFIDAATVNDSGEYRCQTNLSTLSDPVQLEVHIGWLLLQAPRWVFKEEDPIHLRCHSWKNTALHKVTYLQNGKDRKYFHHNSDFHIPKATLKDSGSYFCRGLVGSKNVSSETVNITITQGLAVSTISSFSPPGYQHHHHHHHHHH

[6] = target: T6, Recombinant Cynomolgus Fc gamma RIIA/CD32a Protein (R&D Systems), His-tagged (cynomolgus); assay: as above
T6 construct: also called cynomolgus FcγRIIa; cFcγRIIa
T6 chain: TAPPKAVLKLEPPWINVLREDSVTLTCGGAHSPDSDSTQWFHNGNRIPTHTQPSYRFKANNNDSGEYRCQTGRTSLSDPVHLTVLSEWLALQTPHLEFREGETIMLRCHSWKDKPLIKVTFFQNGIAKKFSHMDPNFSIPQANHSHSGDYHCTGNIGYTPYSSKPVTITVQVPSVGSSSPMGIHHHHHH

[7] = target: T7, Recombinant Cynomolgus Fc gamma RIIB protein (R&D Systems), His-tagged (cynomolgus); assay: as above
T7 construct: also called cynomolgus FcγRIIb; cFcγRIIb
T7 chain: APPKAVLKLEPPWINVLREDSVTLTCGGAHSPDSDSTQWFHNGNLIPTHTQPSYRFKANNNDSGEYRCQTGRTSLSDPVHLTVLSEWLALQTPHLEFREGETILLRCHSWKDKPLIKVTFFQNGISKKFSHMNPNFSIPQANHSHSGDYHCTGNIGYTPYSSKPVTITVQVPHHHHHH

[8] = target: T8, Recombinant Cynomolgus Fc gamma RIII/CD16 Protein (R&D Systems), His-tagged (cynomolgus, UniProt Q8SPW2 17-208); assay: as above
T8 construct: also called cynomolgus FcγRIII; cFcγRIII
T8 chain: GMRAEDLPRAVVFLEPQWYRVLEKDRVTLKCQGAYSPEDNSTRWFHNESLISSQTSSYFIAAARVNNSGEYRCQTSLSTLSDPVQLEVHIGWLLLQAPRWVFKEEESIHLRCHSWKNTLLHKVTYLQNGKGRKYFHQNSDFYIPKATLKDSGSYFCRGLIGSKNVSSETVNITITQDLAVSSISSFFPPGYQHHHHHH

[9] = target: T1, Recombinant Human Fc gamma RIIA/CD32a …; assay: as above; remark: listed apart in the source
[10] = target: T2, Recombinant Human Fc gamma RIIB/C …; assay: as above; remark: listed apart in the source
[11] = target: T3, Recombinant Human Fc gamma RIIIA/CD16a …; assay: as above; remark: listed apart in the source
[12] = target: T4, Recombinant Human Fc gamma RIIIA/CD16a …; assay: as above; remark: listed apart in the source
[13] = target: T5, Recombinant Human Fc gamma RIIIB/CD16b …; assay: as above
[14] = target: T6, Recombinant Cynomolgus Fc gamma …; assay: as above
[15] = target: T7, Recombinant Cynomolgus Fc gamma RIIB …; assay: as above
[16] = target: T8, Recombinant Cynomolgus Fc gamma …; assay: as above
[17] = target: T3, Recombinant Human Fc gamma RIIIA/CD16a …; assay: SPR (Biacore T200): human FcγRIIIa immobilised directly on a CM5 chip, antibody as analyte; RU plotted against antibody concentration
[18] = target: T5, Recombinant Human Fc gamma RIIIB/CD16b …; assay: SPR (Biacore T200): human FcγRIIIb immobilised directly on a CM5 chip, antibody as analyte; RU plotted against antibody concentration
[19] = target: T9, Recombinant Human Fc gamma RIIA/CD32a (R167) Protein (R&D Systems), His-tagged (human, UniProt P12318 36-218); assay: SPR (Biacore T200); receptor immobilized directly on CM5 chip, antibody as analyte at 4.7 µM
T9 construct: also called human FcγRIIa; hFcγRIIa
T9 chain: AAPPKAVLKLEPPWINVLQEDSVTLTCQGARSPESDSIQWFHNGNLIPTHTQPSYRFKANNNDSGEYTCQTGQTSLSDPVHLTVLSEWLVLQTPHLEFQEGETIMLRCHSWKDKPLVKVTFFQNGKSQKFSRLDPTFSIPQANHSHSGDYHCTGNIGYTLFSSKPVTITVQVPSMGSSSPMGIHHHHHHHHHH

[20] = target: T10, human FcRn (human neonatal Fc receptor large subunit p51 and beta2-microglobulin), biotinylated (human, UniProt P55899 24-297; P61769 21-119, biotinylated (site not stated)); assay: BLI (Octet RED384), biotinylated FcRn on streptavidin biosensor, binding and dissociation at pH 6.0
[21] = target: T11, Recombinant Cynomolgus Monkey Fc gamma RI/CD64 Protein, CF (R&D Systems), His-tagged (cynomolgus, UniProt P12314 11-288 (human entry)); assay: SPR (Biacore T200); His-tagged receptor captured on anti-His antibody chip, antibody as analyte at 4.7 µM
T11 construct: also called cynomolgus FcγRI; cFcγRI
T11 chain: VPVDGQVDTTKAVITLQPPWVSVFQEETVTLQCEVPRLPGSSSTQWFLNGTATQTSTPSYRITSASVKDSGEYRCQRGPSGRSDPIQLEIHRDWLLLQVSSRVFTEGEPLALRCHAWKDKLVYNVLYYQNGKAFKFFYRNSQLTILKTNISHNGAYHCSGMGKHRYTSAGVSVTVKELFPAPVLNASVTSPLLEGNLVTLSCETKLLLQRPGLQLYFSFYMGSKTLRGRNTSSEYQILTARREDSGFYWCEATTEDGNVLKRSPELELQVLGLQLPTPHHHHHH

[22] = target: T10, human FcRn (human neonatal Fc receptor …); assay: BLI (Octet RED384), biotinylated FcRn on streptavidin biosensor, binding at pH 6.0, dissociation at pH 7.4; dissociation at pH 7.4 after binding at pH 6.0

T4 sequence (P08637 other isoform, or with tags, fused parts or gaps V176F V176F): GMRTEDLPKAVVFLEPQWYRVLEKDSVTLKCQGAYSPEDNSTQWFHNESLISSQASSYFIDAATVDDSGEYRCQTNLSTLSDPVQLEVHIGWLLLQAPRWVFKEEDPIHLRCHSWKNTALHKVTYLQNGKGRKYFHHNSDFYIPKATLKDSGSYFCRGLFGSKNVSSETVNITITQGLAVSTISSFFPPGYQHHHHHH
T3 sequence (P08637 other isoform, or with tags, fused parts or gaps): as the sequence (P08637 other isoform, or with tags, fused parts or gaps V176F V176F) above, with F160V counted along it
T10 sequence (P55899 24-297 limits assumed, chain 1 of 2): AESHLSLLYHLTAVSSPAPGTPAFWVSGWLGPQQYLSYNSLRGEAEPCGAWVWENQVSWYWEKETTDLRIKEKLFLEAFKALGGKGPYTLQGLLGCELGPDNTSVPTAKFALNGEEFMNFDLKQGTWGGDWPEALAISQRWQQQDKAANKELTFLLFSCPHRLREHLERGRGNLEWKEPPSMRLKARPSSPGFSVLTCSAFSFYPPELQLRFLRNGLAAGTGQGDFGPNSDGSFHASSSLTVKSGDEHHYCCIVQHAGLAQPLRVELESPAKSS
T10 sequence (P61769 21-119 limits assumed, chain 2 of 2): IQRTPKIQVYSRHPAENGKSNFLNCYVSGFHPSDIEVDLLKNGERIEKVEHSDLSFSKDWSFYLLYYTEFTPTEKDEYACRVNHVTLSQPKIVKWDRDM

B1: L234A/L235A/D265A (LALA-DA) variant of IgG1 WT of the anti-EGFR antibody panitumumab (antibody)
heavy: QVQLQESGPGLVKPSETLSLTCTVSGGSVSSGDYYWTWIRQSPGKGLEWIGHIYYSGNTNYNPSLKSRLTISIDTSKTQFSLKLSSVTAADTAIYYCVRDRVTGAFDIWGQGTMVTVSSASTKGPSVFPLAPSSKSTSGGTAALGCLVKDYFPEPVTVSWNSGALTSGVHTFPAVLQSSGLYSLSSVVTVPSSSLGTQTYICNVNHKPSNTKVDKRVEPKSCDKTHTCPPCPAPEAAGGPSVFLFPPKPKDTLMISRTPEVTCVVVAVSHEDPEVKFNWYVDGVEVHNAKTKPREEQYNSTYRVVSVLTVLHQDWLNGKEYKCKVSNKALPAPIEKTISKAKGQPREPQVYTLPPSREEMTKNQVSLTCLVKGFYPSDIAVEWESNGQPENNYKTTPPVLDSDGSFFLYSKLTVDKSRWQQGNVFSCSVMHEALHNHYTQKSLSLSPGK
light: not shown
notes: Mutations in both CH2 domains; positions are EU numbers
**Q.** What does the source list for B1?
**A.** binding response (RU) [1]: 24 RU; binding response (RU) [2]: 20 RU; binding response (RU) [3]: 0.4 RU; binding response (RU) [4]: -2.2 RU; binding response (RU) [5]: 0.3 RU; binding response (RU) [6]: 25 RU; binding response (RU) [7]: 110 RU; binding response (RU) [8]: 8.4 RU; binding response (RU) [9]: 24 RU; binding response (RU) [10]: 20 RU; binding response (RU) [11]: 0.4 RU; binding response (RU) [12]: -2.2 RU; binding response (RU) [13]: 0.3 RU; binding response (RU) [14]: 25 RU; binding response (RU) [15]: 110 RU; binding response (RU) [16]: 8.4 RU; binding result [17]: no binding (tested: 4.7 µM); binding result [18]: no binding (tested: 4.7 µM)

B2: IgG1 WT of the anti-EGFR antibody panitumumab (IgG2 Fc region replaced with a human wildtype IgG1 Fc region) (antibody)
heavy: not shown
light: not shown
notes: The legends were followed; also called anti-EGFR antibody IgG1 WT
**Q.** For B2, which “binding response (RU)” value [19] is on record?
**A.** The value was 1700 RU.

**Q.** What about the “binding response (RU)” value [1] of the same binder?
**A.** The value was 1400 RU.

**Q.** And the “binding response (RU)” value [2]?
**A.** Its value is 650 RU.

**Q.** What about the “binding response (RU)” value [3] of the same binder?
**A.** The value was 2400 RU.

**Q.** And the “binding response (RU)” value [4]?
**A.** Its value is 530 RU.

**Q.** And the “binding response (RU)” value [5]?
**A.** Its value is 250 RU.

**Q.** And the “binding response (RU)” value [6]?
**A.** The value was 910 RU.

**Q.** What about the “binding response (RU)” value [7] of the same binder?
**A.** Its value is 840 RU.

**Q.** And the “binding response (RU)” value [8]?
**A.** The value was 2800 RU.

**Q.** And the Kd [20]?
**A.** The Kd was 5.8 nM.

**Q.** What about the “binding response (RU)” value [21] of the same binder?
**A.** Its value is 6700 RU.

**Q.** What about the koff [22] of the same binder?
**A.** Its koff is 2.1 s⁻¹.

— patent US20240239915A1 (Zymeworks, published 2024)
